Experimental data: article PMC6628311, “An Emerin LEM-Domain Mutation Impairs Cell Response to Mechanical Stress” (Cells, 2019)

What was measured:
[1] = target: human barrier-to-autointegration factor (BAF) with all cysteines mutated into alanine (human) (UniProt O75531); assay: crystal structure; ternary complex EmN T43I/BAF/lamin A/C Ig-fold at 5 mg/mL, a week at 4 °C (proteolysis to the LEM-domain); hanging drop at 4 °C, 18% PEG 3350, 100 mM Tris Bis pH 5.5, 0.1 M NH4SO4; molecular replacement; 2.3 Å
[2] = target: the molecule itself; assay: thioflavin T fluorescence (self-assembly kinetics); protein at 300 uM heated at 37 °C in 20 mM Tris HCl pH 8, 30 mM NaCl, 5 mM DTT; aliquots at 20 uM protein with 2.5 uM ThT read at 20 °C over 24 h

## human barrier-to-autointegration factor (BAF) with all cysteines mutated into alanine (from UniProt O75531 1-89) (natural protein)
[1]
  stoichiometry N: 2

B1: human emerin fragment EmN (region 1-187), mutant ΔK37 (domain or fragment, UniProt P50402 1-187, looked up)
chain: MDNYADLSDTELTTLLRRYNIPHGPVVGSTRRLYEKIFEYETQRRRLSPPSSSAASSYSFSDLNSTRGDADMYDLPKKEDALLYQSKGYNDDYYEESYFTTRTYGEPESAGPSRAVRQSVTSFPDADAFHHQVHDDDLLSSSEEECKDRERPMYGRDSAYQSITHYRPVSASRSSLDLSYYPTSSS
notes: emerin, human, fragment EmN, residues 1-187, with the patient deletion ΔK37 (atrial cardiac defects); Made by site-directed mutagenesis from the EmN expression vector; also called EmN ΔK37; emerin ΔK37; not shown: His8, N-terminal, cleaved
[2]
  binding result: binds

B2: human emerin fragment EmN (region 1-187), wild-type (domain or fragment, UniProt P50402 1-187, looked up)
chain: MDNYADLSDTELTTLLRRYNIPHGPVVGSTRRLYEKKIFEYETQRRRLSPPSSSAASSYSFSDLNSTRGDADMYDLPKKEDALLYQSKGYNDDYYEESYFTTRTYGEPESAGPSRAVRQSVTSFPDADAFHHQVHDDDLLSSSEEECKDRERPMYGRDSAYQSITHYRPVSASRSSLDLSYYPTSSS
notes: emerin, human, fragment EmN, residues 1-187 of the 254-residue protein (LEM-domain aa 1-45 and part of the disordered region); pETM-13 vector; also called wild-type EmN; EmN wild-type; not shown: His8, N-terminal, cleaved
[2]
  binding result: binds

B3: human emerin fragment EmN (region 1-187), mutant P22L (domain or fragment, UniProt P50402 1-187, looked up)
chain: MDNYADLSDTELTTLLRRYNILHGPVVGSTRRLYEKKIFEYETQRRRLSPPSSSAASSYSFSDLNSTRGDADMYDLPKKEDALLYQSKGYNDDYYEESYFTTRTYGEPESAGPSRAVRQSVTSFPDADAFHHQVHDDDLLSSSEEECKDRERPMYGRDSAYQSITHYRPVSASRSSLDLSYYPTSSS
notes: emerin, human, fragment EmN, residues 1-187, with the patient mutation P22L (atrial cardiac defects); Made by site-directed mutagenesis from the EmN expression vector; also called EmN P22L; not shown: His8, N-terminal, cleaved
[2]
  binding result: binds

B4: human emerin fragment EmN (region 1-187), mutant T43I (domain or fragment, UniProt P50402 1-187, looked up)
chain: MDNYADLSDTELTTLLRRYNIPHGPVVGSTRRLYEKKIFEYEIQRRRLSPPSSSAASSYSFSDLNSTRGDADMYDLPKKEDALLYQSKGYNDDYYEESYFTTRTYGEPESAGPSRAVRQSVTSFPDADAFHHQVHDDDLLSSSEEECKDRERPMYGRDSAYQSITHYRPVSASRSSLDLSYYPTSSS
notes: emerin, human, fragment EmN, residues 1-187, with the patient mutation T43I (atrial cardiac defects); Made by site-directed mutagenesis from the EmN expression vector; also called EmN T43I; not shown: His8, N-terminal, cleaved
[2]
  binding result: binds
